Data on 1 substance can be found in paper PMC5492955.

The target of this assay is the single-site mutations V130C and L210C. The experiment in a line: radioligand binding.

As for “glucagon (from UniProt P01275) (peptide)”, the glucagon binding (% of WT) was determined as 50%.
